# T1: cynomolgus monkey FcγRIIa1 extracellular domain, His-tagged (cynomolgus monkey)
# T1 construct: also called cyno FcγRIIa1; cynoFcgRIIa1
# T1 chain: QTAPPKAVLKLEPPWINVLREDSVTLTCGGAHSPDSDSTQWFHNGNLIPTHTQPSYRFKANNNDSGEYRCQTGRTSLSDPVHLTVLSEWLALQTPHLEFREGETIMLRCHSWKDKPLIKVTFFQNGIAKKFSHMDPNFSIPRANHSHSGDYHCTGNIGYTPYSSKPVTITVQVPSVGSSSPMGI
# T2: cynomolgus monkey FcγRIIa2 extracellular domain, His-tagged (cynomolgus monkey)
# T2 construct: also called cyno FcγRIIa2; cynoFcgRIIa2
# T2 chain: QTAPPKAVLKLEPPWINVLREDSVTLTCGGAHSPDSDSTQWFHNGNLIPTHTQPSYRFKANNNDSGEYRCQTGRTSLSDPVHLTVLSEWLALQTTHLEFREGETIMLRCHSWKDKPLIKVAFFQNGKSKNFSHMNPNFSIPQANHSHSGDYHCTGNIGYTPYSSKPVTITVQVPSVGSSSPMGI
# T3: cynomolgus monkey FcγRIIa3 extracellular domain, His-tagged (cynomolgus monkey)
# T3 construct: also called cyno FcγRIIa3; cynoFcgRIIa3
# T3 chain: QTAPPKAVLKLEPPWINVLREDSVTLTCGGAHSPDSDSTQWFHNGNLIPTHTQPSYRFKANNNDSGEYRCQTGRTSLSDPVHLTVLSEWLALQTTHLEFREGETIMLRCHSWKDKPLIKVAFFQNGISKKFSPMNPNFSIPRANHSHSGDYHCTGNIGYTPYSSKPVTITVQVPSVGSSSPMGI
# T4: cynomolgus monkey FcγRIIb extracellular domain, His-tagged (cynomolgus monkey)
# T4 construct: also called cyno FcγRIIb; cynoFcγRIIb
# T4 chain: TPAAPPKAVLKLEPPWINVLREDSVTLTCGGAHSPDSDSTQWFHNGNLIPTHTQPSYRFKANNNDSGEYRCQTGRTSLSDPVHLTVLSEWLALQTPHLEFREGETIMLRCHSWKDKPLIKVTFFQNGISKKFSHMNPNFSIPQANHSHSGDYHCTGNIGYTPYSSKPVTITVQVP
# T5: cynomolgus monkey FcγRIIIaS extracellular domain, His-tagged (cynomolgus monkey, UniProt Q8SPW2 21-206 at identity 1.00))
# T5 construct: also called cyno FcγRIIIaS; cynoFcγRIIIaS
# T5 chain: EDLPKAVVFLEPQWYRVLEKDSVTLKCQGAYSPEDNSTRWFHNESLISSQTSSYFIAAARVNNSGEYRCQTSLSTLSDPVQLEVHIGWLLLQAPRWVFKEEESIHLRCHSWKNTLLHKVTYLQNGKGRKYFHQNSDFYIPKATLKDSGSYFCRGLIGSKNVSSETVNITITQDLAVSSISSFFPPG
# T6: human FcγRIIaR extracellular domain, His-tagged (human, UniProt P12318 34-217)
# T6 construct: also called human FcγRIIa (type R); FcgRIIaR
# T6 chain: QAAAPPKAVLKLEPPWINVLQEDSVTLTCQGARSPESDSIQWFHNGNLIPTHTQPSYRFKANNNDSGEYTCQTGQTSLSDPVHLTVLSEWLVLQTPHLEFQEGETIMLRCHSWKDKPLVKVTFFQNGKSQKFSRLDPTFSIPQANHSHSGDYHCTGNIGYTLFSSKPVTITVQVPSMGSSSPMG
# T7: human FcγRIIb extracellular domain, His-tagged (human, UniProt P31994 43-217)
# T7 construct: also called FcgRIIb (human)
# T7 sequence: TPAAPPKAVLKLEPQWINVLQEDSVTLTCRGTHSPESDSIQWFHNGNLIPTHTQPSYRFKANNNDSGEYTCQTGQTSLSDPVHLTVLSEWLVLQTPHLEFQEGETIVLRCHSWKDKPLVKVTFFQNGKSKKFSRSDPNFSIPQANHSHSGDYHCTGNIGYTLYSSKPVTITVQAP
# How the values were obtained:
# Assay in all cases: SPR; KD of SG1 / KD of variant;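 note: relative to parent M103205H795-SG1 carrying the SG1 human heavy chain constant region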
# [1] = biological target: T1, cynomolgus monkey FcγRIIa1 …
# [2] = biological target: T2, cynomolgus monkey FcγRIIa2 …
# [3] = biological target: T3, cynomolgus monkey FcγRIIa3 …
# [4] = biological target: T4, cynomolgus monkey FcγRIIb extracellular …
# [5] = biological target: T5, cynomolgus monkey FcγRIIIaS …
# [6] = biological target: T6, human FcγRIIaR extracellular domain, …
# [7] = biological target: T7, human FcγRIIb extracellular domain, …
# [8] = biological target: T8, human FcγRIIIaV extracellular domain, His-tagged (human, UniProt P08637 17-208)
# T8 construct: also called FcgRIIIaV
# T8 sequence (P08637 17-208 F176V): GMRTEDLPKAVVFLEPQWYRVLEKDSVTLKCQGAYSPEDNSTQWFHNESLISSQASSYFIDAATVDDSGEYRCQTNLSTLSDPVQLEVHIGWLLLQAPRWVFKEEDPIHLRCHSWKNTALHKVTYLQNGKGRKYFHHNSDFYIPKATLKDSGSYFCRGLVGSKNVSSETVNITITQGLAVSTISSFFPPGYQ
KD fold (SG1 = 1) [1] [fold],KD fold (SG1 = 1) [2] [fold],KD fold (SG1 = 1) [3] [fold],KD fold (SG1 = 1) [4] [fold],KD fold (SG1 = 1) [5] [fold],KD fold (SG1 = 1) [6] [fold],KD fold (SG1 = 1) [7] [fold],KD fold (SG1 = 1) [8] [fold],Binder
0.6,1.4,1.5,0.7,1.29,2.4,1.9,1.59,"M103205H795-MY071/M103202L889-SK1 (antibody, human IgG1, kappa, Substitution put into M103205H795-SG1) heavy: not shown light: DIVMTQSPATLSLSPGERATLSCTSSQSVYHANWLSWFQQKPGQPPKLLIYWASTLAYGVPSRFSGSGSGTDFTLTISSLQPEDAATYYCAGGYGGGRYAFGQGTKVEIKRTVAAPSVFIFPPSDEQLKSGTASVVCLLNNFYPREAKVQWKVDNALQSGNSQESVTEQDSKDSTYSLSSTLTLSKADYEKHKVYACEVTHQGLSSPVTKSFNRGEC"
1.3,1.7,0.7,0.8,0.6,0.8,0.7,0.37,"M103205H795-MY196/M103202L889-SK1 (antibody, human IgG1, kappa, Substitution put into M103205H795-SG1) heavy: not shown light: DIVMTQSPATLSLSPGERATLSCTSSQSVYHANWLSWFQQKPGQPPKLLIYWASTLAYGVPSRFSGSGSGTDFTLTISSLQPEDAATYYCAGGYGGGRYAFGQGTKVEIKRTVAAPSVFIFPPSDEQLKSGTASVVCLLNNFYPREAKVQWKVDNALQSGNSQESVTEQDSKDSTYSLSSTLTLSKADYEKHKVYACEVTHQGLSSPVTKSFNRGEC"
3.2,4.3,6.5,3.8,6.79,2.3,3.1,6.75,"M103205H795-MY072/M103202L889-SK1 (antibody, human IgG1, kappa, Substitution put into M103205H795-SG1) heavy: not shown light: DIVMTQSPATLSLSPGERATLSCTSSQSVYHANWLSWFQQKPGQPPKLLIYWASTLAYGVPSRFSGSGSGTDFTLTISSLQPEDAATYYCAGGYGGGRYAFGQGTKVEIKRTVAAPSVFIFPPSDEQLKSGTASVVCLLNNFYPREAKVQWKVDNALQSGNSQESVTEQDSKDSTYSLSSTLTLSKADYEKHKVYACEVTHQGLSSPVTKSFNRGEC"

# Second part, the binder before the results:
Binder,KD fold (SG1 = 1) [1] [fold],KD fold (SG1 = 1) [2] [fold],KD fold (SG1 = 1) [3] [fold],KD fold (SG1 = 1) [4] [fold],KD fold (SG1 = 1) [5] [fold],KD fold (SG1 = 1) [6] [fold],KD fold (SG1 = 1) [7] [fold],KD fold (SG1 = 1) [8] [fold]
"M103205H795-MY124/M103202L889-SK1 (antibody, human IgG1, kappa, Substitution put into M103205H795-SG1) heavy: not shown light: DIVMTQSPATLSLSPGERATLSCTSSQSVYHANWLSWFQQKPGQPPKLLIYWASTLAYGVPSRFSGSGSGTDFTLTISSLQPEDAATYYCAGGYGGGRYAFGQGTKVEIKRTVAAPSVFIFPPSDEQLKSGTASVVCLLNNFYPREAKVQWKVDNALQSGNSQESVTEQDSKDSTYSLSSTLTLSKADYEKHKVYACEVTHQGLSSPVTKSFNRGEC",1.7,1.6,1.4,0.8,0.28,2.1,0.5,0.16
"M103205H795-MY073/M103202L889-SK1 (antibody, human IgG1, kappa, Substitution put into M103205H795-SG1) heavy: not shown light: DIVMTQSPATLSLSPGERATLSCTSSQSVYHANWLSWFQQKPGQPPKLLIYWASTLAYGVPSRFSGSGSGTDFTLTISSLQPEDAATYYCAGGYGGGRYAFGQGTKVEIKRTVAAPSVFIFPPSDEQLKSGTASVVCLLNNFYPREAKVQWKVDNALQSGNSQESVTEQDSKDSTYSLSSTLTLSKADYEKHKVYACEVTHQGLSSPVTKSFNRGEC",2.7,8.9,3.3,2.7,2.12,2.2,2.3,2.38

# Reference: patent US20200317768A1 (published 2020)
